Tested on: Escherichia coli TOP10
Assay: shrunken log2 fold change of peptide-encoding DNA abundance (4.5 h post-induction vs induction); higher = less antimicrobial activity (less host growth inhibition)
Details: time post-induction: 4.5 h; library: site-saturation at positions 5, 18, 19, 20
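Also: peptides expressed intracellularly from a pBAD plasmid library in pooled LB shake-flask culture, induced with 0.3% L-arabinose, DNA abundance read by NGS, three biological replicates, DESeq2 with apeglm shrinkage.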

Sequence	shrunken log2 fold change
RRIRKRPPRLPRPRPRPCPSPRP	-0.0812
RRIRKRPPRLPRPRPRPCQCPRP	-0.0903
RRIRKRPPRLPRPRPRPCQFPRP	-0.117
RRIRKRPPRLPRPRPRPCRGPRP	-0.115
RRIRKRPPRLPRPRPRPCSGPRP	0.00663
RRIRKRPPRLPRPRPRPCSRPRP	0.015
RRIRKRPPRLPRPRPRPCTLPRP	0.0143
RRIRKRPPRLPRPRPRPCYMPRP	-0.195
RRIRKRPPRLPRPRPRPDANPRP	-0.0872
RRIRKRPPRLPRPRPRPDCCPRP	0.435
RRIRKRPPRLPRPRPRPDCGPRP	0.016
RRIRKRPPRLPRPRPRPDDEPRP	0.143
RRIRKRPPRLPRPRPRPDDTPRP	2.31
RRIRKRPPRLPRPRPRPDEGPRP	-0.01
RRIRKRPPRLPRPRPRPDGAPRP	0.632
RRIRKRPPRLPRPRPRPDGPPRP	0.022
RRIRKRPPRLPRPRPRPDHFPRP	0.0027
RRIRKRPPRLPRPRPRPDHMPRP	0.0864
RRIRKRPPRLPRPRPRPDHPPRP	0.0127
RRIRKRPPRLPRPRPRPDIKPRP	0.137
RRIRKRPPRLPRPRPRPDILPRP	0.0039
RRIRKRPPRLPRPRPRPDKSPRP	0.0207
RRIRKRPPRLPRPRPRPDKWPRP	0.429
RRIRKRPPRLPRPRPRPDLDPRP	0.109
RRIRKRPPRLPRPRPRPDLSPRP	-0.0341

Sequence	shrunken log2 fold change
RRIRKRPPRLPRPRPRPDMDPRP	0.0224
RRIRKRPPRLPRPRPRPDNSPRP	-0.00848
RRIRKRPPRLPRPRPRPDQHPRP	-0.0427
RRIRKRPPRLPRPRPRPDRCPRP	0.00281
RRIRKRPPRLPRPRPRPDREPRP	0.186
RRIRKRPPRLPRPRPRPDSSPRP	0.0149
RRIRKRPPRLPRPRPRPDTTPRP	0.0419
RRIRKRPPRLPRPRPRPDVFPRP	-0.162
RRIRKRPPRLPRPRPRPDWGPRP	2.83
RRIRKRPPRLPRPRPRPDYIPRP	-0.0117
RRIRKRPPRLPRPRPRPDYSPRP	-0.168
RRIRKRPPRLPRPRPRPEAEPRP	3.31
RRIRKRPPRLPRPRPRPECLPRP	0.182
RRIRKRPPRLPRPRPRPECNPRP	0.0503
RRIRKRPPRLPRPRPRPECSPRP	0.854
RRIRKRPPRLPRPRPRPEDRPRP	0.206
RRIRKRPPRLPRPRPRPEEDPRP	0.0229
RRIRKRPPRLPRPRPRPEFTPRP	0.738
RRIRKRPPRLPRPRPRPEGMPRP	0.194
RRIRKRPPRLPRPRPRPEKFPRP	-0.0568
RRIRKRPPRLPRPRPRPEKHPRP	0.401
RRIRKRPPRLPRPRPRPEKTPRP	-0.000942
RRIRKRPPRLPRPRPRPEMTPRP	2.82
RRIRKRPPRLPRPRPRPENIPRP	-0.0813
RRIRKRPPRLPRPRPRPENLPRP	3.46

Sequence	shrunken log2 fold change
RRIRKRPPRLPRPRPRPENNPRP	0.179
RRIRKRPPRLPRPRPRPEQNPRP	0.949
RRIRKRPPRLPRPRPRPERNPRP	0.683
RRIRKRPPRLPRPRPRPESKPRP	0.727
RRIRKRPPRLPRPRPRPETRPRP	0.269
RRIRKRPPRLPRPRPRPETVPRP	0.0854
RRIRKRPPRLPRPRPRPEVEPRP	2.8
RRIRKRPPRLPRPRPRPFADPRP	0.00902
RRIRKRPPRLPRPRPRPFCNPRP	0.128
RRIRKRPPRLPRPRPRPFCYPRP	-0.14
RRIRKRPPRLPRPRPRPFDFPRP	0.0615
RRIRKRPPRLPRPRPRPFDSPRP	-0.0504
RRIRKRPPRLPRPRPRPFFPPRP	0.967
RRIRKRPPRLPRPRPRPFFVPRP	0.461
RRIRKRPPRLPRPRPRPFGHPRP	-0.00208
RRIRKRPPRLPRPRPRPFGIPRP	-0.00674
RRIRKRPPRLPRPRPRPFGRPRP	-0.209
RRIRKRPPRLPRPRPRPFICPRP	0.0135
RRIRKRPPRLPRPRPRPFIIPRP	-0.268
RRIRKRPPRLPRPRPRPFLDPRP	0.0893
RRIRKRPPRLPRPRPRPFLTPRP	-0.206
RRIRKRPPRLPRPRPRPFMAPRP	0.0398
RRIRKRPPRLPRPRPRPFMTPRP	0.168
RRIRKRPPRLPRPRPRPFMVPRP	-0.145
RRIRKRPPRLPRPRPRPFMYPRP	-0.401

Sequence	shrunken log2 fold change
RRIRKRPPRLPRPRPRPFNDPRP	-0.135
RRIRKRPPRLPRPRPRPFNQPRP	-0.0503
RRIRKRPPRLPRPRPRPFPQPRP	0.11
RRIRKRPPRLPRPRPRPFPWPRP	0.582
RRIRKRPPRLPRPRPRPFRHPRP	-0.0849
RRIRKRPPRLPRPRPRPFSTPRP	-0.187
RRIRKRPPRLPRPRPRPFWWPRP	0.592
RRIRKRPPRLPRPRPRPFYGPRP	-0.0306
RRIRKRPPRLPRPRPRPFYLPRP	-0.154
RRIRKRPPRLPRPRPRPFYQPRP	-0.101
RRIRKRPPRLPRPRPRPGAFPRP	0.369
RRIRKRPPRLPRPRPRPGATPRP	1.09
RRIRKRPPRLPRPRPRPGCAPRP	0.82
RRIRKRPPRLPRPRPRPGCCPRP	0.722
RRIRKRPPRLPRPRPRPGCQPRP	0.702
RRIRKRPPRLPRPRPRPGCWPRP	0.466
RRIRKRPPRLPRPRPRPGDIPRP	-0.227
RRIRKRPPRLPRPRPRPGEFPRP	0.242
RRIRKRPPRLPRPRPRPGEYPRP	0.156
RRIRKRPPRLPRPRPRPGKCPRP	0.0131
RRIRKRPPRLPRPRPRPGKEPRP	0.266
RRIRKRPPRLPRPRPRPGKSPRP	0.0157
RRIRKRPPRLPRPRPRPGLEPRP	1.18
RRIRKRPPRLPRPRPRPGMMPRP	0.308
RRIRKRPPRLPRPRPRPGMTPRP	0.129

Sequence	shrunken log2 fold change
RRIRKRPPRLPRPRPRPGNPPRP	0.85
RRIRKRPPRLPRPRPRPGQMPRP	0.00812
RRIRKRPPRLPRPRPRPGRQPRP	0.143
RRIRKRPPRLPRPRPRPGTFPRP	0.253
RRIRKRPPRLPRPRPRPGVMPRP	0.895
RRIRKRPPRLPRPRPRPGWKPRP	0.0274
RRIRKRPPRLPRPRPRPGWVPRP	0.573
RRIRKRPPRLPRPRPRPGWYPRP	-0.0717
RRIRKRPPRLPRPRPRPHAPPRP	0.485
RRIRKRPPRLPRPRPRPHCLPRP	-0.0309
RRIRKRPPRLPRPRPRPHDLPRP	0.00698
RRIRKRPPRLPRPRPRPHDNPRP	0.029
RRIRKRPPRLPRPRPRPHEEPRP	0.0526
RRIRKRPPRLPRPRPRPHIYPRP	-0.175
RRIRKRPPRLPRPRPRPHKQPRP	0.164
RRIRKRPPRLPRPRPRPHMFPRP	-0.469
RRIRKRPPRLPRPRPRPHNDPRP	0.00261
RRIRKRPPRLPRPRPRPHPYPRP	-0.0228
RRIRKRPPRLPRPRPRPHRHPRP	0.023
RRIRKRPPRLPRPRPRPHSRPRP	0.147
RRIRKRPPRLPRPRPRPHTQPRP	0.13
RRIRKRPPRLPRPRPRPHWQPRP	0.3
RRIRKRPPRLPRPRPRPHWYPRP	0.0533
RRIRKRPPRLPRPRPRPHYDPRP	0.0324
RRIRKRPPRLPRPRPRPHYLPRP	0.0182

Sequence	shrunken log2 fold change
RRIRKRPPRLPRPRPRPICYPRP	0.125
RRIRKRPPRLPRPRPRPIEYPRP	-0.156
RRIRKRPPRLPRPRPRPIFPPRP	0.319
RRIRKRPPRLPRPRPRPIGPPRP	0.0335
RRIRKRPPRLPRPRPRPIGTPRP	0.105
RRIRKRPPRLPRPRPRPIHAPRP	-0.000921
RRIRKRPPRLPRPRPRPIHLPRP	-0.0911
RRIRKRPPRLPRPRPRPIIRPRP	-0.59
RRIRKRPPRLPRPRPRPIKIPRP	-0.149
RRIRKRPPRLPRPRPRPIMRPRP	-0.00968
RRIRKRPPRLPRPRPRPIQEPRP	0.000523
RRIRKRPPRLPRPRPRPIRDPRP	-0.016
RRIRKRPPRLPRPRPRPIRGPRP	0.0181
RRIRKRPPRLPRPRPRPIRIPRP	-0.0265
RRIRKRPPRLPRPRPRPIRNPRP	-0.34
RRIRKRPPRLPRPRPRPISRPRP	-0.00748
RRIRKRPPRLPRPRPRPITLPRP	-0.0554
RRIRKRPPRLPRPRPRPIVQPRP	0.000772
RRIRKRPPRLPRPRPRPIVSPRP	-0.0354
RRIRKRPPRLPRPRPRPIYYPRP	-0.37
RRIRKRPPRLPRPRPRPKAFPRP	0.0156
RRIRKRPPRLPRPRPRPKAGPRP	0.504
RRIRKRPPRLPRPRPRPKEGPRP	0.0503
RRIRKRPPRLPRPRPRPKESPRP	-0.0162
RRIRKRPPRLPRPRPRPKFKPRP	0.241

Reference: the supplement of paper PMC9112550, “Optimization of the antimicrobial peptide Bac7 by deep mutational scanning” (BMC Biology, 2022)
